{"source": "patent US20220003777A1", "about": "(Stanford University, published 2022)", "target": "T1, Secreted Protease of C1 Esterase Inhibitor (StcE), recombinant N-terminal His-tagged (Escherichia coli O157:H7, UniProt O82882 36-898)", "T1 construct": "also called mucinase", "T1 sequence": "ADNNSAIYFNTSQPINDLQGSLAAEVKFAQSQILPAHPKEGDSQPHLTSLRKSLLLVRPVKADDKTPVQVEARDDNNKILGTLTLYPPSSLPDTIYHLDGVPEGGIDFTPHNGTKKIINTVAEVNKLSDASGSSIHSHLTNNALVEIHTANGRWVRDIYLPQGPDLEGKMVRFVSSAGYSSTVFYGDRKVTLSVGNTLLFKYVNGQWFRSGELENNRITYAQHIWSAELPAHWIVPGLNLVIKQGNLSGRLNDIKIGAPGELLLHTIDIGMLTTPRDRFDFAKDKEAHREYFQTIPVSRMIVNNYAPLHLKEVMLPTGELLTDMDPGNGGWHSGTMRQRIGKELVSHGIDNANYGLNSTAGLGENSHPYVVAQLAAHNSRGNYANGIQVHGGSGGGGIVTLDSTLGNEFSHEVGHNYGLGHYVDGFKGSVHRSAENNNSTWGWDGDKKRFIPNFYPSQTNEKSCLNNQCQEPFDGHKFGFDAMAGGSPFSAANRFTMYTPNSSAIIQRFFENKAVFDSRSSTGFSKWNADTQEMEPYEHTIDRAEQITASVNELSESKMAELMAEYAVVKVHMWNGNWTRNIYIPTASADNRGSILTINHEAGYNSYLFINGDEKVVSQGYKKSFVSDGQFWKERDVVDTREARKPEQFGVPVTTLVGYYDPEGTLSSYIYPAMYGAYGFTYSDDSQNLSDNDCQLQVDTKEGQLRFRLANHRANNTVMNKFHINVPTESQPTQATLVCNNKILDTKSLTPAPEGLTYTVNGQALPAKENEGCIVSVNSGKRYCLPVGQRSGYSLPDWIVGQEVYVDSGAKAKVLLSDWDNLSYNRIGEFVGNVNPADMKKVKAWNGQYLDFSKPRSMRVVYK", "assay": "pull-down with StcE conjugated to POROS AL beads, EDTA present, silver stain", "data": [{"binder": "C1 esterase inhibitor, human plasma-derived (other, Printed as C11NH throughout (OCR of C1INH); Native glycosylated protein; also called C11NH; C1-INH) NPNATSSSSQDPESLQDRGEGKVATTVISKMLFVEPILEVSSLPTTNSTTNSATKITANTTDEPTTQPTTEPTTQPTIQPTQPTTQLPTDSPTQPTTGSFCPGPVTLCSDLESHSTEAVLGDALVDFSLKLYHAFSAMKKVETNMAFSPFSIASLLTQVLLGAGENTKTNLESILSYPKDFTCVHQALKGFTTKGVTSVSQIFHSPDLAIRDTFVNASRTLYSSSPRVLSNNSDANLELINTWVAKNTNNKISRLLDSLPSDTRLVLLNAIYLSAKWKTTFDPKKTRMEPFHFKNSVIKVPMMNSKKYPVAHFIDQTLKAKVGQLQLSHNLSLVILVPQNLKHRLEDMEQALSPSVFKAIMEKLEMSKFQPTLLTLPRIKVTTSQDMLSIMEKLEFFDFSYDLNLCGLTEDPDLQVSAMQHQTVLELTETGVEAAAASAISVARTLLVFEVQQPFLFVLWDQQHKFPVFMGRVYDPRA", "values": [{"measurement": "binding result", "value": "binds"}]}]}
